In patent publication US11306156 one finds H1L1:H1L2 normalized median ratio, H1L1:H1L2 normalized median scalar value ln(r1/f1) and H2L2:H2L1 normalized median ratio data, which are given here for three substances.

Values joined by “and” are separate entries in the source; they are usually repeats but may differ in a detail not shown here. Equal entries are not always repeated.

For assay [1], the target named is D3H44 light chain Q124E_Q160E_T180E, N-terminal HA or FLAG tag. Description: LCCA, L1:L2 DNA 1:3, SPR of light chain tags; competing light chain m10.
The target of assay [2] is D3H44 light chain T178R, N-terminal HA or FLAG tag. In words: LCCA, L1:L2 DNA 1:3, SPR of light chain tags; competing light chain m11.
The target of assay [3] is D3H44 light chain Q124E_Q160E_T180E, N-terminal HA or FLAG tag. Description: LCCA, L1:L2 DNA 1:9, SPR of light chain tags; competing light chain m10.
In assay [4] the target is D3H44 light chain T178R, N-terminal HA or FLAG tag. Description: LCCA, L1:L2 DNA 1:9, SPR of light chain tags; competing light chain m11.
Assay [5] addresses D3H44 light chain Q124E_T180E, N-terminal HA or FLAG tag. Description: LCCA, L1:L2 DNA 1:3, SPR of light chain tags; competing light chain m10.
Assay [6] has as its target D3H44 light chain Q124K_T178R, N-terminal HA or FLAG tag. In words: LCCA, L1:L2 DNA 1:3, SPR of light chain tags; competing light chain m11.
Assay [7] addresses D3H44 light chain Q124R_T178K, N-terminal HA or FLAG tag. The assay is described as above.
Assay [8] deals with D3H44 light chain Q124R_T178R, N-terminal HA or FLAG tag. The assay is described as above.
Assay [9] addresses D3H44 light chain Q124E_Q160E_T180E, N-terminal HA or FLAG tag. In words: LCCA, L1:L2 DNA 1:3, SPR of light chain tags; competing light chain m12.
The target of assay [10] is D3H44 light chain Q124E_T180E, N-terminal HA or FLAG tag. The assay is described as above.
Assay [11] has as its target D3H44 light chain Q124R_Q160K_T178R, N-terminal HA or FLAG tag. Description: LCCA, L1:L2 DNA 1:3, SPR of light chain tags; competing light chain m13.
The target in assay [12] is D3H44 light chain Q124R_T178R, N-terminal HA or FLAG tag. Described as above.
Assay [13] addresses D3H44 light chain T178R, N-terminal HA or FLAG tag. Described as above.
Assay [14] concerns the target D3H44 light chain Q124E_T180E, N-terminal HA or FLAG tag. In words: LCCA, L1:L2 DNA 1:3, SPR of light chain tags; competing light chain m14.
Assay [15] concerns the target D3H44 light chain Q124E_Q160E_T180E, N-terminal HA or FLAG tag. Description: LCCA, L1:L2 DNA 1:3, SPR of light chain tags; competing light chain m15.
Assay [16] shares this target. Description: LCCA, L1:L2 DNA 1:3, SPR of light chain tags; competing light chain m16.
Assay [17] deals with D3H44 light chain Q124K_T178R, N-terminal HA or FLAG tag. In words: LCCA, L1:L2 DNA 1:9, SPR of light chain tags; competing light chain m11.
The target of assay [18] is D3H44 light chain Q124R_T178K, N-terminal HA or FLAG tag. The assay is described as above.
The target of assay [19] is D3H44 light chain Q124R_T178R, N-terminal HA or FLAG tag. The assay is described as above.
Assay [20] addresses D3H44 light chain Q124E_Q160E_T180E, N-terminal HA or FLAG tag. In words: LCCA, L1:L2 DNA 1:9, SPR of light chain tags; competing light chain m12.
The target is the same in assay [21]. In words: LCCA, L1:L2 DNA 1:9, SPR of light chain tags; competing light chain m15.
Assay [22] has the same target. Description: LCCA, L1:L2 DNA 1:9, SPR of light chain tags; competing light chain m16.
For assay [23], the target named is D3H44 light chain Q124E_Q160E_T180E with N-terminal HA or FLAG tag. In words: LCCA (SPR tag readout), L1:L2 DNA 1:3, normalized to 1:1; competing light chain m9.
For assay [24], the target named is D3H44 light chain Q124E_T178E with N-terminal HA or FLAG tag. The description is as above.
The target of assay [25] is D3H44 light chain Q124E_T180E with N-terminal HA or FLAG tag. Described as above.
For assay [26], the target named is D3H44 light chain Q124E_Q160E_T180E with N-terminal HA or FLAG tag. In words: LCCA (SPR tag readout), L1:L2 DNA 1:9, normalized to 1:1; competing light chain m9.
Assay [27] concerns the target D3H44 light chain Q124E_T178E with N-terminal HA or FLAG tag. The description is as above.
In assay [28] the target is D3H44 light chain Q124E_T180E with N-terminal HA or FLAG tag. Described as above.
Assay [29] concerns the target D3H44 light chain Q124R_T178R with N-terminal HA or FLAG tag. In words: LCCA (SPR tag readout), L1:L2 DNA 1:3, normalized to 1:1; competing light chain m11.
Assay [30] addresses D3H44 light chain Q124E_T180E with N-terminal HA or FLAG tag. In words: LCCA (SPR tag readout), L1:L2 DNA 1:3, normalized to 1:1; competing light chain m12.
Assay [31] has as its target D3H44 light chain Q124K_T178R with N-terminal HA or FLAG tag. Description: LCCA (SPR tag readout), L1:L2 DNA 1:3, normalized to 1:1; competing light chain m13.
Assay [32] deals with D3H44 light chain Q124R_Q160K_T178R with N-terminal HA or FLAG tag. The description is as above.
Assay [33] addresses D3H44 light chain Q124R_T178R with N-terminal HA or FLAG tag. The assay is described as above.
Assay [34] addresses D3H44 light chain T178R with N-terminal HA or FLAG tag. Described as above.
Assay [35] deals with D3H44 light chain Q124E_T180E with N-terminal HA or FLAG tag. In words: LCCA (SPR tag readout), L1:L2 DNA 1:3, normalized to 1:1; competing light chain m14.
For assay [36], the target named is D3H44 light chain Q124E_Q160E_T180E with N-terminal HA or FLAG tag. Description: LCCA (SPR tag readout), L1:L2 DNA 1:3, normalized to 1:1; competing light chain m15.
For assay [37], the target named is D3H44 light chain Q124R_T178K with N-terminal HA or FLAG tag. Description: LCCA (SPR tag readout), L1:L2 DNA 1:3, normalized to 1:1; competing light chain m18.
The target in assay [38] is D3H44 light chain Q124R_T178R with N-terminal HA or FLAG tag. Described as above.
The target in assay [39] is D3H44 light chain T178R with N-terminal HA or FLAG tag. The description is as above.
The target in assay [40] is D3H44 light chain Q124E_Q160E_T180E with N-terminal HA or FLAG tag. Description: LCCA (SPR tag readout), L1:L2 DNA 1:3, normalized to 1:1; competing light chain m19.
For assay [41], the target named is D3H44 light chain Q124E_T180E with N-terminal HA or FLAG tag. Described as above.
Assay [42] deals with D3H44 light chain Q124R_T178R with N-terminal HA or FLAG tag. In words: LCCA (SPR tag readout), L1:L2 DNA 1:9, normalized to 1:1; competing light chain m11.
The target is the same in assay [43]. In words: LCCA (SPR tag readout), L1:L2 DNA 1:9, normalized to 1:1; competing light chain m13.
In assay [44] the target is D3H44 light chain Q124E_Q160E_T180E with N-terminal HA or FLAG tag. Description: LCCA (SPR tag readout), L1:L2 DNA 1:9, normalized to 1:1; competing light chain m15.
Assay [45] has as its target D3H44 light chain Q124R_T178K with N-terminal HA or FLAG tag. In words: LCCA (SPR tag readout), L1:L2 DNA 1:9, normalized to 1:1; competing light chain m18.
Assay [46] has as its target D3H44 light chain Q124R_T178R with N-terminal HA or FLAG tag. The description is as above.
Assay [47] addresses D3H44 light chain T178R with N-terminal HA or FLAG tag. Described as above.
The target of assay [48] is D3H44 light chain Q124E_Q160E_T180E with N-terminal HA or FLAG tag. In words: LCCA (SPR tag readout), L1:L2 DNA 1:9, normalized to 1:1; competing light chain m19.

As to “D3H44 Fab heavy chain L143D_K145T_Q179E, C-terminal ABD2-His6 tag”, the H1L1:H1L2 normalized median ratio was 11 share of 100 in [1], 89 share of 100 in assay [2], 11 share of 100 in assay [3] and 89 share of 100 in assay [4]. Besides, the H1L1:H1L2 normalized median scalar value ln(r1/f1) in assay [2] is 2.1; in assay [4], 2.09.

As for “D3H44 Fab heavy chain L143E_K145T_Q179D, C-terminal ABD2-His6 tag”, the H1L1:H1L2 normalized median ratio was 35 share of 100 in [5]; 86 share of 100 in [6]; 89 share of 100 in assay [7]; 87 share of 100 in [8]; 13 share of 100 in assay [9]; 24 share of 100 in assay [10]. In addition, the H1L1:H1L2 normalized median ratio in assay [11] is 69 share of 100; in assay [12], 76 share of 100; in assay [13], 65 share of 100; in assay [14], 31 share of 100; in [15], 14 share of 100; in assay [16], 11 share of 100. For the same substance, the H1L1:H1L2 normalized median ratio in assay [17] is 86 share of 100; in assay [18], 78 share of 100; in assay [19] it was 82 share of 100; in assay [20], 18 share of 100; in [21], 14 share of 100; in assay [22], 22 share of 100. In addition, the H1L1:H1L2 normalized median scalar value ln(r1/f1) is 1.78 in assay [6]; 2.08 and 2.03 in assay [7]; 1.9 in assay [8]; 0.79 in [11]; 1.14 in [12]; 0.64 in [13]. Also, the H1L1:H1L2 normalized median scalar value ln(r1/f1) in assay [17] is 1.84; in [18] it was 1.28; in [19] it was 1.55.

Turning to “D3H44 Fab heavy chain S186K with C-terminal ABD2-His6 tag”, the H2L2:H2L1 normalized median ratio came out at 94% in assay [23]; 96% in assay [24]; 94% in [25]; 94% in assay [26]; 96% in assay [27]; 89% in assay [28]. The H2L2:H2L1 normalized median ratio in assay [29] turned out to be 4%; in assay [30] it was 98%; in [31], 2%; in [32], 3%; in [33], 6%; in [34], 4%. For the same substance, the H2L2:H2L1 normalized median ratio was found to be 97% in assay [35]; 92% in assay [36]; 8% in assay [37]; 6% in [38]; 9% in assay [39]; 91% in assay [40]. Also, the H2L2:H2L1 normalized median ratio in assay [41] came out at 96%; in assay [42] it was 4%; in assay [43], 11%; in assay [44] it was 89%; in [45], 11%; in assay [46], 6%. Further, the H2L2:H2L1 normalized median ratio was determined as 13% in assay [47] and 87% in [48].
